Experimental data: the supplement of paper PMC10567573
± gives the standard deviation.

Assay: protein stability index of a GFP-peptide fusion (GPS, HEK-293T) (PSI 1-6); higher = more stable
[1] = treatment: DMSO, c terminus: a fixed tail appended
[2] = treatment: MLN4924 1 uM, 8 h, c terminus: a fixed tail appended
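Note: 24-mer peptide tiles fused after GFP, lentivirally expressed, FACS-sorted into six equal bins by GFP/DsRed ratio, decoded by Illumina sequencing, PSI is the read-weighted mean bin number.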

Sequence | protein stability index [1] | protein stability index [2] | protein stability index (treatment: DMSO, c terminus: native) | protein stability index (treatment: MLN4924 1 uM, 8 h, c terminus: native)
SQNSSLVQHERIHTGDKPYKCAEC [ZNF8] | 4.58 ± 0.29 | 4.82 ± 0.28 | – | –
FLMLINLGLGSMIGTMAGITTPII [SLC6A17] | 3.1 ± 0.31 | 3.03 ± 0.76 | – | –
ESSVPVTPSVPPPASQHSTPAGLP [FBF1] | 5.04 ± 0.18 | 5.19 ± 0.17 | – | –
VERAQQVAVQEQEIARREKELEAR [FLOT1] | 5.27 ± 0.36 | 5.3 ± 0.18 | – | –
LLIYTVKIRRFNKAKPEPDILEEE [TMEM192] | 2.31 ± 0.32 | 2.29 ± 0.31 | – | –
DDSSSESGSGNGSSTLNPSTSSST [NOL4L] | 5.57 ± 0.31 | 5.49 ± 0.2 | – | –
KVVLIGDSGVGKSNLLSRFTRNEF [RAB11A] | 2.33 ± 0.19 | 2.28 ± 0.39 | – | –
LLLCLKVDNHFNLLTTSPVFPHYI [TRIM43] | 3.03 ± 0.52 | 3.08 ± 0.64 | – | –
PLCNFNIIESFTELARIVLLRHRM [RAB40A] | 2.6 ± 0.21 | 2.87 ± 0.79 | – | –
IKIFKYISFNKTMTQLSSTLARCA [PKD2L1] | 2.37 ± 0.15 | 2.26 ± 0.19 | – | –
EHRHAAAALAAMNGRKIMGKEVKV [TIA1] | 3.88 ± 0.23 | 3.85 ± 0.27 | – | –
YSLRNKEFKSALCKIVRRTISLL [OR10K2] | – | – | 2.96 ± 0.64 | 2.93 ± 0.21
HCNVSNILHMNGSQSSTYRGTYEQ [ZNF396] | 3.17 ± 0.21 | 3.24 ± 0.088 | – | –
GSGPIQLWQFLLELLTDKSCQSFI [ETS1] | 1.88 ± 0.67 | 2.94 ± 1.2 | – | –
KPWDFPSVHNDLWESWFVPDPAGI [GLT8D2] | 2.96 ± 0.38 | 2.69 ± 0.16 | – | –
QLQCSPAELQAELLHSQARLAELE [FBF1] | 3.88 ± 0.41 | 3.98 ± 0.26 | – | –
PFSSSSPENVEDSGLDSPSHAAPG [FCHO1] | 5.5 ± 0.19 | 5.4 ± 0.39 | – | –
PLRNDVDKRGETTSASLLNAGLSH [SLC2A12] | 4.55 ± 0.32 | 4.66 ± 0.22 | – | –
QKTSRSSSIPCSGSLDGRELSRQV [PPEF2] | 4.32 ± 0.23 | 4.48 ± 0.42 | – | –
GSLEKALPIIQSNQVSSNSWGIAG [DLC1] | 3.35 ± 0.3 | 3.6 ± 0.2 | – | –
FGAAYVLEQASSHIGNSTQATVRD [ATL3] | 3.06 ± 0.28 | 3.72 ± 0.33 | – | –
QTPILEGRSGPGCAVLDDSIYLVG [KLHL14] | 2.7 ± 0.23 | 2.63 ± 0.28 | – | –

Sequence | protein stability index [1] | protein stability index [2] | protein stability index (treatment: DMSO, c terminus: native) | protein stability index (treatment: MLN4924 1 uM, 8 h, c terminus: native)
MWLTPLHRAVASRSEEAVQVLIKH [ANKRD44] | 2.29 ± 0.12 | 2.45 ± 0.18 | – | –
GNISGEFWLGNEALHSLTQAGDYS [TNXB] | 3.21 ± 0.091 | 3.36 ± 0.34 | – | –
EMSKDANFGLRLVVQRCSGQKWMI [GALNT9] | 2.2 ± 0.65 | 2.85 ± 1 | – | –
KDVRAPSRPAVGPPQPGCPAFIIV [ZSWIM9] | 2.23 ± 0.75 | 2.43 ± 0.6 | – | –
PSLEDISCNTWPSMPSYSSCTVTT [TBX5] | 3.18 ± 0.21 | 3.41 ± 0.24 | – | –
YSALREESAKDWETSPLPGMLAPA [PPFIA4] | 4.26 ± 0.23 | 4.04 ± 0.21 | – | –
KKEQRRLGIPKNPWLWSEQQVCQW [ETS2] | 2.12 ± 0.18 | 2.43 ± 0.43 | – | –
QQELETLPTTKMAQTNPTPGSLGP [CRYBA1] | 5.15 ± 0.1 | 5.09 ± 0.13 | – | –
KEEGTVNGASWHTVAGSLNDFSYL [CPXM2] | 3.35 ± 0.53 | 3.33 ± 0.34 | – | –
PTPAKRRSSALWSEMLDITMKESL [NET1] | 2.71 ± 0.5 | 3.15 ± 0.48 | – | –
SVAVPPPPPNRMYPPPPPALPSSA [WASL] | 4.5 ± 0.18 | 4.53 ± 0.3 | – | –
DSQEAQSPGHSSAGQEGEDTLRRR [TOR1AIP2] | 5.58 ± 0.26 | 5.45 ± 0.58 | – | –
GSTLGGSSYSSCYSFGSGGGYGSS [KRT17] | 2.77 ± 0.23 | 2.98 ± 0.6 | – | –
LKATFSGFTKEQQRLGIPKDPRQW [ETS1] | 2.75 ± 0.25 | 2.82 ± 0.36 | – | –
SRQGSAEALRALQEGLWLDRGTRV [PKD2L1] | 3.6 ± 0.37 | 3.28 ± 0.27 | – | –
KRVYEEFTKVVQPQEEIATKKLRL [INTS4] | 3.31 ± 0.33 | 3.86 ± 0.36 | – | –
ASADRTVIVWDGDTTRQVQRISCF [WDR41] | 2.25 ± 0.27 | 2.58 ± 0.26 | – | –
TIDDTISKFRRKDREDSPERCSDS [CLINT1] | 5.5 ± 0.3 | 5.44 ± 0.3 | – | –
TTFRGHTGGVTALCWDPVQRVLFS [WDFY2] | 2.25 ± 0.23 | 2.26 ± 0.23 | – | –
VEMLCDQAWGSMLEVPAGSRLNLT [CCDC3] | 2.75 ± 0.28 | 2.96 ± 0.31 | – | –
LPSNLVQYYDDEKKTWKILTIMPY [KLHL14] | 2.42 ± 0.33 | 2.3 ± 0.12 | – | –
AAETAAQGPTPRYFTWDEVAQRSG [FADS1] | 4.23 ± 0.23 | 4.11 ± 0.27 | – | –

Sequence | protein stability index [1] | protein stability index [2] | protein stability index (treatment: DMSO, c terminus: native) | protein stability index (treatment: MLN4924 1 uM, 8 h, c terminus: native)
DFLIRDSESSPSDFSVSLKASGKN [NCK2] | 4.25 ± 0.25 | 4.4 ± 0.18 | – | –
GLGASTAEISARTMQSMFAKNFHV [PTPRD] | 2.38 ± 0.26 | 2.56 ± 0.35 | – | –
TSDGYTALHLAARNGHLATVKLLV [RIPK4] | 2.35 ± 0.57 | 2.25 ± 0.33 | – | –
NLFCVLRLVVEFPATGGAIPSWQI [PKD2L1] | 3.39 ± 0.28 | 3 ± 0.5 | – | –
LRVLGSMCQRLRSMQYNGSYFDRG [DFFB] | 2.14 ± 0.29 | 2.23 ± 0.17 | – | –
PLHELITMNRRVCVLMLLAAWIGG [OR4A15] | 2.84 ± 0.27 | 2.92 ± 0.26 | – | –
KSIGSEPHEDHVFLVANFSQIETL [MATN2] | 2.92 ± 0.47 | 2.8 ± 0.25 | – | –
SLPTTAPSNSSSLTLSGIKEDNSL [MYBL2] | 4.91 ± 0.17 | 5.2 ± 0.13 | – | –
VQSYMEHYCNSSTDRRVLLMFLDI [SPACA9] | 2.78 ± 0.38 | 2.71 ± 0.56 | – | –
LVDHVGSKTFLCIGSSVMAASLVT [SLC2A12] | 3.06 ± 0.76 | 3.05 ± 0.57 | – | –
QSSHYLQWILDKQDLLKERQKDLK [CCNC] | 2.87 ± 0.36 | 3.16 ± 0.27 | – | –
TAGDRLTEFRKGAQSLPGPCAAAR [IRX6] | 4.01 ± 0.18 | 4.17 ± 0.58 | – | –
GCGWRCPEHGDRVAELFCRRCRRC [TRIM14] | 3.69 ± 0.27 | 4.12 ± 0.18 | – | –
AGGFSIRNQKGEQVFRLAFRSGAL [MYORG] | 1.77 ± 0.2 | 2.28 ± 0.39 | – | –
LLMAVVSMFTLPVVYVKHQAQIDQ [RTN1] | 2.99 ± 0.39 | 3.32 ± 0.43 | – | –
RRRRMETIVFLDKEVFASRISNPS [PCMTD2] | 2.57 ± 0.26 | 2.77 ± 0.38 | – | –
FTQSGPIVSRATGRCLEVEMSKDA [GALNT9] | 2.71 ± 0.35 | 3.34 ± 0.54 | – | –
MRRMVATWMLEVCEEQKCEEEVFP [CCND2] | 2.9 ± 0.46 | 3.14 ± 0.045 | – | –
VLQENYTHLPKADIFALALTVVCA [WEE1] | 2.69 ± 0.85 | 2.38 ± 0.27 | – | –
HHPEVPQRILRIMCRLEELGLAGR [HDAC6] | 2.09 ± 0.088 | 2.52 ± 0.7 | – | –
TLSFNMSDKYPIQDTELPKAEECD [EDARADD] | 4.55 ± 0.39 | 4.36 ± 0.31 | – | –
AGTGASRSSHSSDSGGSDVDLDPT [ELF3] | 5.59 ± 0.23 | 5.51 ± 0.22 | – | –
